Test results published in patent US20240209076A1 (KODIAK SCIENCES, published 2024).

Tests used:
human IL-6 [1] = biological target: T1, human IL-6 (human, UniProt P05231 30-212); experiment: SPR Biacore, purified Ab on Protein A chip, 37 C
T1 construct: IL-6 flowed over captured antibodies
Method: (§1) Antibodies were captured on a Protein A chip (GE) by injecting 1:20 cell supernatant dilutions at 10 μL/min for 60 seconds. […] The sensor chip was regenerated by a 60 seconds injection of 10 mM Glycine pH 1.7 at the flow rate of 50 μL/min. […] For this setup, 1 μg/mL of purified antibody was injected over a Protein A chip at 10 μL/min for 25 seconds. […] The sensor chip was regenerated by a 60 seconds injection of 10 mM Glycine pH 1.7 at flow rate of 50 μL/min. Data analysis for supernatant and purified samples were performed using BIAevaluation software (GE). All sensorgrams were double reference subtracted and fit using a 1:1 Langmuir binding model.
T1 sequence (P05231 30-212 limits assumed): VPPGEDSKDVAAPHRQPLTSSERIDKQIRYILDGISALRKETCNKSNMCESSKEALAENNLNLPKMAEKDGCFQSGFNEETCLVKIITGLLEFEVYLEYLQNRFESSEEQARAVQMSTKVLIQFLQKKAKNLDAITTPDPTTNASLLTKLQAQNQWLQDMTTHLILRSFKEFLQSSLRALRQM

human IL-6 [2] = biological target: T1, human IL-6; experiment: SPR Biacore, supernatant Ab on Protein A chip, 37 C
human IL-6 [3] = biological target: T2, human IL-6 (human, UniProt P05231 30-212); experiment: SPR (Biacore), purified antibody on Protein A chip, IL-6 flowed, 37 C
Method: as §1
T2 sequence (P05231 30-212 limits assumed): as above

human IL-6 [4] = biological target: T2, human IL-6; experiment: SPR (Biacore), supernatant antibody on Protein A chip, IL-6 flowed, 37 C

Binder | Kd (human IL-6 [1]) [nM] | koff (human IL-6 [1]) [s⁻¹] | kon (human IL-6 [1]) [M⁻¹ s⁻¹] | Kd (human IL-6 [2]) [nM] | koff (human IL-6 [2]) [s⁻¹] | kon (human IL-6 [2]) [M⁻¹ s⁻¹] | Kd (human IL-6 [3]) [nM] | koff (human IL-6 [3]) [s⁻¹] | kon (human IL-6 [3]) [M⁻¹ s⁻¹] | Kd (human IL-6 [4]) [nM] | koff (human IL-6 [4]) [s⁻¹] | kon (human IL-6 [4]) [M⁻¹ s⁻¹]
anti-IL-6 antibody, heavy chain WT / light chain M32L, M50D, N52S, M88Q (antibody, human IgG1, V domains shown, Human IgG1) VH: EVQLVESGGGLVQPGGSLRLSCAASGFTFSPFAMSWVRQAPGKGLEWVAKISPGGSWTYYSDTVTGRFTFSLDTSKSTAYLQMNSLRAEDTAVYYCARQLWGYYALDIWGQGTLVTVSS VL: DIQLTQSPSSLSASVGDRVTITCSASISVSYLYWYQQKPGKAPKLLIYDDSSLASGVPSRFSGSGSGTDFTLTISSLQPEDFATYYCQQWSGYPYTFGQGTKVEIK | – | – | – | – | – | – | 0.286 | 0.000319 | 1.12e+06 | 0.611 | 0.000414 | 677000
anti-IL-6 antibody, heavy chain G66D / light chain M32L, M50D, N52S, M88Q (antibody, human IgG1, V domains shown, Human IgG1) VH: EVQLVESGGGLVQPGGSLRLSCAASGFTFSPFAMSWVRQAPGKGLEWVAKISPGGSWTYYSDTVTDRFTFSLDTSKSTAYLQMNSLRAEDTAVYYCARQLWGYYALDIWGQGTLVTVSS VL: DIQLTQSPSSLSASVGDRVTITCSASISVSYLYWYQQKPGKAPKLLIYDDSSLASGVPSRFSGSGSGTDFTLTISSLQPEDFATYYCQQWSGYPYTFGQGTKVEIK | – | – | – | – | – | – | 0.244 | 0.000412 | 1.69e+06 | 0.296 | 0.000483 | 1.63e+06
anti-IL-6 antibody, heavy chain S35H, G66D / light chain M32L, M50D, N52S, M88Q (antibody, human IgG1, V domains shown, Human IgG1) VH: EVQLVESGGGLVQPGGSLRLSCAASGFTFSPFAMHWVRQAPGKGLEWVAKISPGGSWTYYSDTVTDRFTFSLDTSKSTAYLQMNSLRAEDTAVYYCARQLWGYYALDIWGQGTLVTVSS VL: DIQLTQSPSSLSASVGDRVTITCSASISVSYLYWYQQKPGKAPKLLIYDDSSLASGVPSRFSGSGSGTDFTLTISSLQPEDFATYYCQQWSGYPYTFGQGTKVEIK | – | – | – | – | – | – | 0.212 | 0.000254 | 1.2e+06 | 0.166 | 0.000539 | 3.24e+06

Second part, the binder after the results:

Kd (human IL-6 [1]) [nM] | koff (human IL-6 [1]) [s⁻¹] | kon (human IL-6 [1]) [M⁻¹ s⁻¹] | Kd (human IL-6 [2]) [nM] | koff (human IL-6 [2]) [s⁻¹] | kon (human IL-6 [2]) [M⁻¹ s⁻¹] | Kd (human IL-6 [3]) [nM] | koff (human IL-6 [3]) [s⁻¹] | kon (human IL-6 [3]) [M⁻¹ s⁻¹] | Kd (human IL-6 [4]) [nM] | koff (human IL-6 [4]) [s⁻¹] | kon (human IL-6 [4]) [M⁻¹ s⁻¹] | Binder
0.198 | 0.000327 | 1.65e+06 | 0.242 | 0.000485 | 2e+06 | – | – | – | – | – | – | anti-IL-6 antibody, heavy chain T63E, G66D / light chain M32L, M50D, N52S, M88Q (antibody, IgG1, V domains shown, Full IgG1 (Expi293); VL = variant III) VH: EVQLVESGGGLVQPGGSLRLSCAASGFTFSPFAMSWVRQAPGKGLEWVAKISPGGSWTYYSDEVTDRFTFSLDTSKSTAYLQMNSLRAEDTAVYYCARQLWGYYALDIWGQGTLVTVSS VL: DIQLTQSPSSLSASVGDRVTITCSASISVSYLYWYQQKPGKAPKLLIYDDSSLASGVPSRFSGSGSGTDFTLTISSLQPEDFATYYCQQWSGYPYTFGQGTKVEIK
0.209 | 0.00038 | 1.82e+06 | 0.258 | 0.000562 | 2.18e+06 | – | – | – | – | – | – | anti-IL-6 antibody, heavy chain T65Q, G66D / light chain M32L, M50D, N52S, M88Q (antibody, IgG1, V domains shown, Full IgG1 (Expi293); VL = variant III) VH: EVQLVESGGGLVQPGGSLRLSCAASGFTFSPFAMSWVRQAPGKGLEWVAKISPGGSWTYYSDTVQDRFTFSLDTSKSTAYLQMNSLRAEDTAVYYCARQLWGYYALDIWGQGTLVTVSS VL: DIQLTQSPSSLSASVGDRVTITCSASISVSYLYWYQQKPGKAPKLLIYDDSSLASGVPSRFSGSGSGTDFTLTISSLQPEDFATYYCQQWSGYPYTFGQGTKVEIK
0.201 | 0.000341 | 1.69e+06 | 0.259 | 0.000461 | 1.78e+06 | – | – | – | – | – | – | anti-IL-6 antibody, heavy chain T63Q, G66D / light chain M32L, M50D, N52S, M88Q (antibody, IgG1, V domains shown, Full IgG1 (Expi293); VL = variant III) VH: EVQLVESGGGLVQPGGSLRLSCAASGFTFSPFAMSWVRQAPGKGLEWVAKISPGGSWTYYSDQVTDRFTFSLDTSKSTAYLQMNSLRAEDTAVYYCARQLWGYYALDIWGQGTLVTVSS VL: DIQLTQSPSSLSASVGDRVTITCSASISVSYLYWYQQKPGKAPKLLIYDDSSLASGVPSRFSGSGSGTDFTLTISSLQPEDFATYYCQQWSGYPYTFGQGTKVEIK
0.252 | 0.000401 | 1.59e+06 | 0.246 | 0.000529 | 2.15e+06 | – | – | – | – | – | – | anti-IL-6 antibody, heavy chain T63K, G66D / light chain M32L, M50D, N52S, M88Q (antibody, IgG1, V domains shown, Full IgG1 (Expi293); VL = variant III) VH: EVQLVESGGGLVQPGGSLRLSCAASGFTFSPFAMSWVRQAPGKGLEWVAKISPGGSWTYYSDKVTDRFTFSLDTSKSTAYLQMNSLRAEDTAVYYCARQLWGYYALDIWGQGTLVTVSS VL: DIQLTQSPSSLSASVGDRVTITCSASISVSYLYWYQQKPGKAPKLLIYDDSSLASGVPSRFSGSGSGTDFTLTISSLQPEDFATYYCQQWSGYPYTFGQGTKVEIK
